Consider 1 molecule from publication doi:10.1101/2022.11.29.518402 (bioRxiv, 2022).

The target in experiment [1] is T1, EMC3(T102C)-GFP, cysteine in loop 2 of EMC3 (human, UniProt Q9P0I2 1-261, T102C).
T1 sequence: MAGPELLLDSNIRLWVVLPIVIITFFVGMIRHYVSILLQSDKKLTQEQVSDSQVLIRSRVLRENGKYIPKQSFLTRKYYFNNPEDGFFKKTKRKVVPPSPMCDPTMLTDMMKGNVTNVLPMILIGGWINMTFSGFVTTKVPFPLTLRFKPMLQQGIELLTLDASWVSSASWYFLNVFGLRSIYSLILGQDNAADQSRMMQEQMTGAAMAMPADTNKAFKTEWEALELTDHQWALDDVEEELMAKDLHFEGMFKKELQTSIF
The experiment is described as follows: cross-linking.

In experiment [2] the target is T2, ALFA-EMC7(M214C), cysteine in helix 2 (H2) of EMC7 (human, UniProt Q9NPA0 24-242, M214C).
T2 sequence: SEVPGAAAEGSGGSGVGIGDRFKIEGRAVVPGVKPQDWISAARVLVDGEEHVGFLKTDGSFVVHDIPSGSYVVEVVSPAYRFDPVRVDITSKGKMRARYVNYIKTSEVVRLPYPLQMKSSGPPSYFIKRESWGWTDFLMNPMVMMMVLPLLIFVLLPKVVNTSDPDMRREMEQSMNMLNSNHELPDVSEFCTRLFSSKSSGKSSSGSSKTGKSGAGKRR
The experiment can be described thus: cross-linking.

B1: SQS(L401C): 3xFLAG-Sec61β(2-59, C39S)-SQS(378-end) with a cysteine at L401 in the TMD (other)
chain: PGPTPSGTNVGSSGRSPSKAVAARAAGSTVRQRKNASSGTRSAGRTTSAGTGGMWRFYSRSHYSPIYLSFVMLLAALSWQYCTTLSQVTEDYVQTGEH
modifications: 35S-methionine labelled
As to B1, the binding result in experiment [1] and in experiment [2] was “binds” throughout.
